From publication PMC6821365

Assays:
Experiment in all cases: ITC
[1] = biological target: T1, yedK W68A (Escherichia coli (gene from BL21 …, UniProt P76318 2-222, W68A))
T1 sequence: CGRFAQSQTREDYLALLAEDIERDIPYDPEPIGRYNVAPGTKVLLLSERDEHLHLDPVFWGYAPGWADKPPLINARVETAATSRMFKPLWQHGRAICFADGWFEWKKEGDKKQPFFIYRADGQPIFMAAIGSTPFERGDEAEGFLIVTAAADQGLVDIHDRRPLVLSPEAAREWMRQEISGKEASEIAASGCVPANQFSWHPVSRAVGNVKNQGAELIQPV

[2] = biological target: T2, yedK R85A (Escherichia coli (gene from BL21 …, UniProt P76318 2-222, R85A))
T2 sequence: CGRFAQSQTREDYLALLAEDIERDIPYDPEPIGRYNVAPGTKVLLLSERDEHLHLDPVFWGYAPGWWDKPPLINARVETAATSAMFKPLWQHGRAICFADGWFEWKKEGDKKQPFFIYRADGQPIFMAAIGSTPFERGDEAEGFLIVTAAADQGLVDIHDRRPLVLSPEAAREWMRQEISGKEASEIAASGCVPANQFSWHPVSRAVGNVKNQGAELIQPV

[3] = biological target: T3, yedK W67A (Escherichia coli (gene from BL21 …, UniProt P76318 2-222, W67A))
T3 sequence: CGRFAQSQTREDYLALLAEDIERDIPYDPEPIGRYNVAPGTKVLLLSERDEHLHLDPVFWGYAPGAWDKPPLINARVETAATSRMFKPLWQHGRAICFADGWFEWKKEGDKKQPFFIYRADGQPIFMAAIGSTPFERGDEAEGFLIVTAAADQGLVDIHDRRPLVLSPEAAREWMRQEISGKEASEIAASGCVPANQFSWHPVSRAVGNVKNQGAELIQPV

[4] = biological target: T4, yedK P40G (Escherichia coli (gene from BL21 …, UniProt P76318 2-222, P40G))
T4 sequence: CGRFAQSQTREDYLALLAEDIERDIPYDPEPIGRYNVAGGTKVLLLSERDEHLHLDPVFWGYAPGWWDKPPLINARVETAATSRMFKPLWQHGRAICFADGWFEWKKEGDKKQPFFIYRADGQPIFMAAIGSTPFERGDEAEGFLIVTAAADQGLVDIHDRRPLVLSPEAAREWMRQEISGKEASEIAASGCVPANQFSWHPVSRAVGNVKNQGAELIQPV

[5] = biological target: T5, yedK R4A (Escherichia coli (gene from BL21 …, UniProt P76318 2-222, R4A))
T5 sequence: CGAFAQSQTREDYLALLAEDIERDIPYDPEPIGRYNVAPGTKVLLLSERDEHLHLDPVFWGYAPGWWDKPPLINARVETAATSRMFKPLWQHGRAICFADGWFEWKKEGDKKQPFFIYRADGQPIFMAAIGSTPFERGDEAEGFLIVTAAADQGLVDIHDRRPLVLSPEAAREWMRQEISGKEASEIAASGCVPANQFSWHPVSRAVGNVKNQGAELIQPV

[6] = biological target: T6, yedK S84A (Escherichia coli (gene from BL21 …, UniProt P76318 2-222, S84A))
T6 sequence: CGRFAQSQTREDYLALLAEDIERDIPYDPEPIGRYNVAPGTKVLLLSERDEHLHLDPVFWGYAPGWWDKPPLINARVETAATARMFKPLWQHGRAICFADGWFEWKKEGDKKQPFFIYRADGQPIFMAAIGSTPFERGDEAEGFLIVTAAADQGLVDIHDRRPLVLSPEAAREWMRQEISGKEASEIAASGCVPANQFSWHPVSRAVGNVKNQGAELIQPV

[7] = biological target: T7, yedK T80A (Escherichia coli (gene from BL21 …, UniProt P76318 2-222, T80A))
T7 sequence: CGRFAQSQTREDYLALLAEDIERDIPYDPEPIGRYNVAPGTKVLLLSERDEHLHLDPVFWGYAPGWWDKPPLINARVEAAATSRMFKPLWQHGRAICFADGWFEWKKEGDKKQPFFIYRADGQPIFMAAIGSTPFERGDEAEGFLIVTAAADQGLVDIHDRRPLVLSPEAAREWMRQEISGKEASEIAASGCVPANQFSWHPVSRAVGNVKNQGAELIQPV

[8] = biological target: T8, yedK K70A (Escherichia coli (gene from BL21 …, UniProt P76318 2-222, K70A))
T8 sequence: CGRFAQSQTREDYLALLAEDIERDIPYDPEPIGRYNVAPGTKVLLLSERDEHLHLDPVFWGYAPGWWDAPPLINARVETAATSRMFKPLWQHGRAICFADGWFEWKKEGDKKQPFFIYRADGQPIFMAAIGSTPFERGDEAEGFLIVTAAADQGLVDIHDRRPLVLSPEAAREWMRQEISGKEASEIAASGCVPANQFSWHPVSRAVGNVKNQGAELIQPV

B1: ssDNA (ssDNA)
DNA: CGGTCGATTC
- binding result [1]: no binding
- Kd [2]: 16.9 µM
- binding result [3]: no binding
- Kd [4]: 10.8 µM
- Kd [5]: 34.6 µM
- Kd [6]: 10.8 µM
- Kd [7]: 12.6 µM
- Kd [8]: 4 µM
